Data reported in US20160289285A1 (Molecular Partners, published 2016).

B1: Protein #69 (designed binder)
chain: MRGSHHHHHHGSDLGKKLLEAARAGQDDEVRILMANGADVNAKDYFSHTPLHLAARNGHLKIVEVLLKAGADVNAKDFAGKTPLHLAANDGHLEIVEVLLKHGADVNAQDIFGKTPADIAADAGHEDIAEVLQKLGSPTPTPTTPTPTPTTPTPTPTGSRSDLDKKLLEAARAGQDDEVRILLKAGADVNAKDYLGWTPLHLAAHEGHLEIVEVLLKAGADVNAKDVSGYTPLHLAAADGHLEIVEVLLKAGADVNAKDNTGWTPLHLSADLGHLEIVEVLLKAGADVNAQDKFGKTAFDISIDNGNEDLAEILQKLGSPTPTPTTPTPTPTTPTPTPTGSRSDLGKKLLEAARAGQDDEVRILLKAGADVNAKDRYGDTPLHLAADAGHLKIVEVLLKAGADVNAEDYFGNTPLHLAASAGHLEIVEVLLKAGADVNAKDDAGNTPLHLAANTGHLKIVEVLLKAGADVNAQDKSGKTPADLAADAGHEDIAEVLQKLN
B2: Protein #107 (designed binder)
chain: MRGSHHHHHHGSDLGKKLLEAARAGQDDEVRELLKAGADVNAKDYFSHTPLHLAARNGHLKIVEVLLKAGADVNAKDFAGKTPLHLAANDGHLEIVEVLLKAGADVNAQDIFGKTPADIAADAGHEDIAEVLQKAAGSPTPTPTTPTPTPTTPTPTPTGSDLDKKLLEAARAGQDDEVRILLKAGADVNAKDSTGWTPLHLAAPWGHPEIVEVLLKAGADVNAKDYQGWTPLHLAAAVGHLEIVEVLLKAGADVNAQDKSGKTPADLAADAGHEDIAEVLQKAAGSPTPTPTTPTPTPTTPTPTPTGSDLGKKLLEAARAGQDDEVRILLKAGADVNAKDRYGDTPLHLAADAGHLKIVEVLLKAGADVNAEDYFGNTPLHLAASAGHLEIVEVLLKAGADVNAKDDAGNTPLHLAANTGHLKIVEVLLKAGADVNAQDKSGKTPADLAADAGHEDIAEVLQKAAGSPTPTPTTPTPTPTTPTPTPTGSDLGKKLLEAARAGQDDEVRELLKAGADVNAKDYFSHTPLHLAARNGHLKIVEVLLKAGADVNAKDFAGKTPLHLAANDGHLEIVEVLLKAGADVNAQDIFGKTPADIAADAGHEDIAEVLQKAA
B3: Protein #60 (designed binder)
chain: MRGSHHHHHHGSDLGKKLLEAARAGQDDEVRELLKAGADVNAKDYFSHTPLHLAARNGHLKIVEVLLKAGADVNAKDFAGKTPLHLAANEGHLEIVEVLLKAGADVNAQDIFGKTPADIAADAGHEDIAEVLQKAAGSPTPTPTTPTPTPTTPTPTPTGSDLGKKLLEAARAGQDDEVRILLKAGADVNAKDRYGDTPLHLAADIGHLEIVEVLLKAGADVNAEDYFGNTPLHLAASYGHLEIVEVLLKAGADVNAKDDYGNTPLHLAANTGHLEIVEVLLKAGADVNAQDKSGKTPADLAADAGHEDIAEVLQKAA
B4: Protein #61 (designed binder)
chain: MRGSHHHHHHGSDLGKKLLEAARAGQDDEVRELLKAGADVNAKDYFSHTPLHLAARNGHLKIVEVLLKAGADVNAKDFAGKTPLHLAANEGHLEIVEVLLKAGADVNAQDIFGKTPADIAADAGHEDIAEVLQKAAGSPTPTPTTPTPTPTTPTPTPTGSDLDKKLLEAARAGQDDEVRILLKAGADVNAKDSTGWTPLHLAAPWGHPEIVEVLLKAGADVNAKDFQGWTPLHLAAAAGHLEIVEVLLKAGADVNAQDKSGKTPADLAADAGHEDIAEVLQKAA

Experiments:
human VEGF-A [1] = molecular target: T1, human VEGF-A (human, UniProt P15692-4 27-191, limits assumed); experiment: ELISA; species of VEGF-A not stated
T1 construct: Recombinant, bought or produced in CHO or Pichia pastoris; also called hVEGF-A
T1 sequence (P15692 other isoform, or with tags, fused parts or gaps limits assumed): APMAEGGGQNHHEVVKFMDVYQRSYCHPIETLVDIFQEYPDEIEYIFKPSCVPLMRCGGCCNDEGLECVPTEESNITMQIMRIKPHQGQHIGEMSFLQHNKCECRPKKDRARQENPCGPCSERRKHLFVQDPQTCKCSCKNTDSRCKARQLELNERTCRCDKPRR

human VEGF-A [2] = molecular target: T1, human VEGF-A; experiment: ELISA, EC50 comparison
human HGF [3] = molecular target: T2, human HGF (human, UniProt P14210 32-728); experiment: ELISA, EC50 comparison
T2 construct: also called hepatocyte growth factor
T2 sequence (P14210 32-728 limits assumed): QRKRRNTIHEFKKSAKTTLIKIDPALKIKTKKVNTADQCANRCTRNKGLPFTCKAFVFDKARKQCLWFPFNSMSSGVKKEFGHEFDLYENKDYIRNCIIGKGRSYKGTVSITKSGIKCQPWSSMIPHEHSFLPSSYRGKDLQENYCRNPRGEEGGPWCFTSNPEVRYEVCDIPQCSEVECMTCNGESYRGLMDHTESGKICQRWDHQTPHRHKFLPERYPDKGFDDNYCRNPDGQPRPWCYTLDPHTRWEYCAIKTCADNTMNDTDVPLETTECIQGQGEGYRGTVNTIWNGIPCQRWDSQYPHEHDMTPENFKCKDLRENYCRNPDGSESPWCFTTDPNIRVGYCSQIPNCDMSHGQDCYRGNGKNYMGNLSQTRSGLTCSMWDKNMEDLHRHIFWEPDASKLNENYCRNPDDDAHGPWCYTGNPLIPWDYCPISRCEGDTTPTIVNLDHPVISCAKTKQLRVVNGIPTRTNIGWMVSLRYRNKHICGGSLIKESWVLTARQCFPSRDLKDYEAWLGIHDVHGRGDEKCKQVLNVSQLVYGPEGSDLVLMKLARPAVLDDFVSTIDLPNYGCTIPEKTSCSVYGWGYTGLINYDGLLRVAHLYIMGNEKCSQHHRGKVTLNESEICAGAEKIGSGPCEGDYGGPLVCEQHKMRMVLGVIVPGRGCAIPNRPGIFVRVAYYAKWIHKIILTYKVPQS

human HGF [4] = molecular target: T2, human HGF; experiment: ELISA; species of HGF not stated
human serum albumin = molecular target: T3, human serum albumin (human, UniProt P02768 25-609); experiment: ELISA, immobilised human serum albumin
T3 construct: For SEC-MALS purified from CSL Behring 20% solution; also called HSA; SA (human)
T3 sequence (P02768 25-609 limits assumed): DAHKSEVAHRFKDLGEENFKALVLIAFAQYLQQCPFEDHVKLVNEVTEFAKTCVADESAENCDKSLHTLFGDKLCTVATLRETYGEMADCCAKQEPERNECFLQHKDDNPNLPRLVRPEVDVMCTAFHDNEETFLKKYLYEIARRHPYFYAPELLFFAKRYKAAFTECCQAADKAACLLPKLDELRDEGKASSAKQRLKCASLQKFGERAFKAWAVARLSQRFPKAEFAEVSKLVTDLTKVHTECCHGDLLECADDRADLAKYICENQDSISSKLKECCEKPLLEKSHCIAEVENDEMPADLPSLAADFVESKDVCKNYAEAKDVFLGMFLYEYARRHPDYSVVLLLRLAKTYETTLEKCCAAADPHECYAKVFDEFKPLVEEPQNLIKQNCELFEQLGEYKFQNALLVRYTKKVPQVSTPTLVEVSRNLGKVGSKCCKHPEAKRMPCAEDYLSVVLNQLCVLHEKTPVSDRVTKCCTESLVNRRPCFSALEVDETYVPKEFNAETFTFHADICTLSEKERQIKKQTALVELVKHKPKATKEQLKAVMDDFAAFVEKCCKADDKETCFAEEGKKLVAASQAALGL
Description: 100 μl or 50 μl of 20 nM target (VEGF-A, HGF, or serum albumin) in PBS per well were immobilized in a Maxisorp plate (Nunc, Denmark) overnight at 4° C. After washing 5 times with 300 μl PBST (PBS supplemented with 0.1% Tween 20), the wells were blocked with 300 μl PBST-C (PBST supplemented with 0.25% casein) for 2 h at room temperature with shaking at 450 rpm on a Titramax 1000 shaker (Heidolph, Germany). […] After washing 5 times as described above, bound anti-designed ankyrin repeat domain antibody was detected using 100 μl or 50 μl/well goat anti-rabbit IgG-HRP conjugate in PBST-C for 1 h at room temperature with shaking at 450 rpm. After washing 5 times as described above, the ELISA was then developed using 100 μl BM soluble blue POD substrate (Roche, Switzerland), diluted 1:4 in water. The reaction was stopped after 5 min using 100 μl 1 M H₂SO₄. The OD (OD 450 nm-OD 620 nm) was then recorded.
Cynomolgus monkey VEGF-A is identical to human VEGF-A and was thus not tested separately.

| Binder | EC50 (human VEGF-A [1]) [nM] | factor more potent (EC50) than Protein #71 (human VEGF-A [2]) [fold] | factor more potent (EC50) than Protein #71 (human HGF [3]) [fold] | EC50 (human HGF [4]) [nM] | factor more potent (EC50) than Protein #69 (human VEGF-A [2]) [fold] | factor more potent (EC50) than Protein #69 (human HGF [3]) [fold] | EC50 (human serum albumin) [nM] |
| --- | --- | --- | --- | --- | --- | --- | --- |
| B1 | 0.102 | 2 | 1.3 | 0.117 | – | – | – |
| B2 | 0.073 | – | – | 0.107 | 1.4 | 1.1 | – |
| B3 | – | – | – | – | – | – | 0.225 |
| B4 | – | – | – | – | – | – | 0.322 |
